Source: the RNAGym collection of RNA variant scans (doi:10.1093/molbev/msab373)

B1: Azoarcus group I ribozyme (parent)
chain: GUGCCUUGCGCCGGGAAACCACGCAAGGGAUGGUGUCAAAUUCGGCGAAACCUAAGCGCCCGCCCGGGCGUAUGGCAACGCCGAGCCAAGCUUCGGCGCCUGCGCCGAUGAAGGUGUAGAGACUAGACGGCACCCACCUAAGGCAAACGCUAUGGUGAAGGCAUAGUCCAGGGAGUGGCGAAAGUCACACAAACCGG

Variants of: B1
Test: reverse-splicing fitness (ratio to wild type); higher = more active; in vitro selection; Mg2+ level not given
How it was run: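 An in vitro group I ribozyme library with randomized positions was T7-transcribed and gel-purified. In triplicate, 10 pmol RNA in EPPS pH 7.5 was reacted with 50 pmoles of a 30-nt RNA substrate for 1 h at 37 °C across several added MgCl2 levels (1–48 mM), then stopped with EDTA. Products were reverse transcribed from a substrate-complementary primer, PCR-amplified and sequenced (HiSeq 4000). Fitness is a variant's read proportion after selection over that before, normalised to wild type.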
In the case of C82G A111U A120U C150U, the reverse-splicing fitness is reported as 0.0256. For C82G A111U A120U C150A, the reverse-splicing fitness was 0.00965. Variant C82G A111U A120U C150U C169U has a reverse-splicing fitness of 0.00485. Work on C82G A111U A120U C150U C169G yielded a reverse-splicing fitness of 0.00565. Work on C82G A111U A120U C150U C169A yielded a reverse-splicing fitness of 0.0056. In the case of C82G A111U A120U C150U C169U U176C, the reverse-splicing fitness is reported as 0.00402. Work on C82G A111U A120U C150U C169U U176G yielded a reverse-splicing fitness of 0.00215. C82G A111U A120U C150U C169U U176A gave a reverse-splicing fitness of 0.0052. Work on C82G A111U A120U A145U C169G U176C yielded a reverse-splicing fitness of 0.0026. With C82G A111U A120U A145U C169G U176G the reverse-splicing fitness was 0.00186. Variant C82G A111U A120U A145U C169G U176A has a reverse-splicing fitness of 0.00265. C82G A111U A120U A145U C150U C169A showed a reverse-splicing fitness of 0.00323. For C82G A111U A120U A145U C150U C169U, the reverse-splicing fitness was 0.00381. C82G A111U A120U A145U C150U C169G showed a reverse-splicing fitness of 0.00327. In the case of C82G A111U A145G C150U C169U U176G, the reverse-splicing fitness is reported as 0.00638. With C82G A111U A145G C150U C169U U176A the reverse-splicing fitness was 0.0152. In the case of C82G A111U A145G C150U C169U U176C, the reverse-splicing fitness is reported as 0.0146. For C82G A111U A120U C150A C169U U176A, the reverse-splicing fitness was 0.00604. Variant C82G A111U A120U C150A C169U U176G has a reverse-splicing fitness of 0.00236. In the case of C82G A111U A120U C150A C169U U176C, the reverse-splicing fitness is reported as 0.00482. In the case of C82G A111U A120U C169U, the reverse-splicing fitness is reported as 0.00476. With C82G A111U A120U C169A the reverse-splicing fitness was 0.0043. Work on C82G A111U A120U C169G yielded a reverse-splicing fitness of 0.00462. With C82G A111U A120U A145G C150G C169A U176G the reverse-splicing fitness was 0.00502. In the case of C82G A111U A120U A145G C150G C169A U176A, the reverse-splicing fitness is reported as 0.0114. Work on C82G A111U A120U A145G C150G C169A U176C yielded a reverse-splicing fitness of 0.0086. In the case of C82G A111U A145U C150A C169A U176C, the reverse-splicing fitness is reported as 0.0126. Variant C82G A111U A145U C150A C169A U176A has a reverse-splicing fitness of 0.0149. With C82G A111U A145U C150A C169A U176G the reverse-splicing fitness was 0.00732. Work on C82G A111U A145G C150A C169A U176G yielded a reverse-splicing fitness of 0.00721. C82G A111U A145G C150A C169A U176C showed a reverse-splicing fitness of 0.0216. With C82G A111U A145G C150A C169A U176A the reverse-splicing fitness was 0.0183. For C82G A111U A145C C150A U176G, the reverse-splicing fitness was 0.00844. Variant C82G A111U A145C C150A U176C has a reverse-splicing fitness of 0.0187. Work on C82G A111U A145C C150A U176A yielded a reverse-splicing fitness of 0.0163. For C82G A111U A145G C150A U176C, the reverse-splicing fitness was 0.0447. Variant C82G A111U A145G C150A U176G has a reverse-splicing fitness of 0.0141. With C82G A111U A145G C150A U176A the reverse-splicing fitness was 0.0322. In the case of C82G A111U A120U A145U C150G C169A, the reverse-splicing fitness is reported as 0.00362. In the case of C82G A111U A120U A145U C150G C169U, the reverse-splicing fitness is reported as 0.0032. For C82G A111U A120U A145U C150G C169G, the reverse-splicing fitness was 0.00336. Variant C82G A111U A145G C150G U176C has a reverse-splicing fitness of 0.0285. For C82G A111U A145G C150G U176G, the reverse-splicing fitness was 0.00893. C82G A111U A145G C150G U176A showed a reverse-splicing fitness of 0.0137. Variant C82G A111U A120U A145U C169U U176G has a reverse-splicing fitness of 0.00177. With C82G A111U A120U A145U C169U U176A the reverse-splicing fitness was 0.00233. In the case of C82G A111U A120U A145U C169U U176C, the reverse-splicing fitness is reported as 0.00275. Work on C82G A111U A145G C169A U176C yielded a reverse-splicing fitness of 0.0263. With C82G A111U A145G C169A U176G the reverse-splicing fitness was 0.00602. Variant C82G A111U A145G C169A U176A has a reverse-splicing fitness of 0.0174. For C82G A111U A145C C150G C169G U176G, the reverse-splicing fitness was 0.00602. For C82G A111U A145C C150G C169G U176A, the reverse-splicing fitness was 0.00943. C82G A111U A145C C150G C169G U176C gave a reverse-splicing fitness of 0.00772. Variant C82G A111U A120U A145U C150A U176G has a reverse-splicing fitness of 0.00291. In the case of C82G A111U A120U A145U C150A U176A, the reverse-splicing fitness is reported as 0.00457. C82G A111U A120U A145U C150A U176C gave a reverse-splicing fitness of 0.00518. C82G A111U A120U A145G C150A C169G U176C showed a reverse-splicing fitness of 0.00577. Work on C82G A111U A120U A145G C150A C169G U176G yielded a reverse-splicing fitness of 0.00257. C82G A111U A120U A145G C150A C169G U176A showed a reverse-splicing fitness of 0.00878. C82G A111U A120U A145G C150U showed a reverse-splicing fitness of 0.0351. In the case of C82G A111U A120U A145G C150G, the reverse-splicing fitness is reported as 0.00902. For C82G A111U A120U A145G C150A, the reverse-splicing fitness was 0.0109. C82G A111U A145C C150U C169A gave a reverse-splicing fitness of 0.00882. Variant C82G A111U A145C C150U C169G has a reverse-splicing fitness of 0.00762. Variant C82G A111U A145C C150U C169U has a reverse-splicing fitness of 0.0104. C82G A111U A120U C150G C169G showed a reverse-splicing fitness of 0.0064. C82G A111U A120U C150G C169U gave a reverse-splicing fitness of 0.00549. In the case of C82G A111U A120U C150G C169A, the reverse-splicing fitness is reported as 0.00722. With C82G A111U A120U A145G C150U C169A U176G the reverse-splicing fitness was 0.00276. C82G A111U A120U A145G C150U C169A U176A showed a reverse-splicing fitness of 0.0082. Variant C82G A111U A120U A145G C150U C169A U176C has a reverse-splicing fitness of 0.00451. In the case of C82G A111U A120U A145U C150A C169G U176A, the reverse-splicing fitness is reported as 0.00335. Work on C82G A111U A120U A145U C150A C169G U176G yielded a reverse-splicing fitness of 0.00186. Work on C82G A111U A120U A145U C150A C169G U176C yielded a reverse-splicing fitness of 0.003. With C82G A111U A145G U176G the reverse-splicing fitness was 0.061. In the case of C82G A111U A145G U176A, the reverse-splicing fitness is reported as 0.197. Variant C82G A111U A145G U176C has a reverse-splicing fitness of 0.244. C82G A111U A145G C150U U176A gave a reverse-splicing fitness of 0.144. Work on C82G A111U A145G C150U U176G yielded a reverse-splicing fitness of 0.0447. Work on C82G A111U A145G C150U U176C yielded a reverse-splicing fitness of 0.196. Work on C82G A111U A120U C150U C169G U176A yielded a reverse-splicing fitness of 0.00881. Variant C82G A111U A120U C150U C169G U176C has a reverse-splicing fitness of 0.00433. For C82G A111U A120U C150U C169G U176G, the reverse-splicing fitness was 0.00236. For C82G A111U A145C C169A, the reverse-splicing fitness was 0.00732.
